Where a chain is given by its changes, count along the chain named.
How the values were obtained:
SEC = target: the molecule itself; test: SEC
crystal structure = target: the molecule itself; test: crystal structure

B1: Escherichia coli SufS R92A (enzyme, E. coli)
chain: MIFSVDKVRADFPVLSREVNGLPLAYLDSAASAQKPSQVIDAEAEFYRHGYAAVHRGIHTLSAQATEKMENVRKRASLFINARSAEELVFVAGTTEGINLVANSWGNSNVRAGDNIIISQMEHHANIVPWQMLCARVGAELRVIPLNPDGTLQLETLPTLFDEKTRLLAITHVSNVLGTENPLAEMITLAHQHGAKVLVDGAQAVMHHPVDVQALDCDFYVFSGHKLYGPTGIGILYVKEALLQEMPPWEGGGSMIATVSLSEGTTWTKAPWRFEAGTPNTGGIIGLGAALEYVSALGLNNIAEYEQNLMHYALSQLESVPDLTLYGPQNRLGVIAFNLGKHHAYDVGSFLDNYGIAVRTGHHCAMPLMAYYNVPAMCRASLAMYNTHEEVDRLVTGLQRIHRLLG
modifications: persulfide on C364 (as isolated; crystallographic occupancy 0.84); PLP, internal aldimine with K226
- stoichiometry N (SEC): 2

B2: Escherichia coli SufS E96A (enzyme, E. coli)
chain: B1 chain with A92R, E96A
modifications: persulfide on C364 (as isolated; crystallographic occupancy 0.80); PLP, internal aldimine with K226
- stoichiometry N (SEC): 2

B3: Escherichia coli SufS E250A (enzyme, E. coli)
chain: B1 chain with A92R, E250A
modifications: persulfide on C364 (as isolated; crystallographic occupancy 0.63); PLP, internal aldimine with K226
- stoichiometry N (SEC): 2

B4: Escherichia coli SufS H55A (enzyme, E. coli)
chain: B1 chain with H55A, A92R
modifications: persulfide on C364 (as isolated; crystallographic occupancy 0.66); PLP, internal aldimine with K226
- binding result (crystal structure): binds
